Laboratory results as given in EP4471049A1 (Zealand Pharma A/S, priority 2023, dated 2024).
*1 amine or outer side, *2 acyl side, *3 side chain or, on linkers, in order; H or OH if unused. Bridges are numbered along the chain shown (N, C = ends). Primed or numbered codes have the meaning given here. Where no end group is shown, it is not given here. [ ]: non-standard residue; d: D form. 4‑Aminomethyl‑phenylacetyl = 4-aminomethyl-phenylacetyl unit, its amine closes the lactam, O=C(Cc1ccc(CN[*:1])cc1)[*:2]; Q(pyrrolidin)(3) = Gln whose side-chain amide N is in a pyrrolidine ring, O=C(CC[C@H](N[*:1])C(=O)[*:2])N1CCCC1; 2Nal = N[C@@H](Cc1ccc2ccccc2c1)C(=O)O; AEF = NCCOc1ccc(C[C@H](N)C(=O)O)cc1; 3Pal = N[C@@H](Cc1cccnc1)C(=O)O; Cit = NC(=O)NCCC[C@H](N)C(=O)O; αMeL = CC(C)C[C@](C)(N)C(=O)O; Dab = NCC[C@H](N)C(=O)O

B1: Compound 30 (peptide)
peptide: [4‑Aminomethyl‑phenylacetyl]SEW[Q(2Me)][Dab][AEF][2Nal][αMeL]E[Dab][3Pal]-NHMe
modifications: lactam N-10, 3-6
B2: Compound 27 (peptide)
peptide: [4‑Aminomethyl‑phenylacetyl]SEW[Q(pyrrolidin)(3)][Dab][AEF][2Nal][αMeL]E[Dab][3Pal]-NHMe
modifications: lactam N-10, 3-6
B3: Compound 24 (peptide)
peptide: [4‑Aminomethyl‑phenylacetyl]SEWK(Ac)[Dab][AEF][2Nal][αMeL]E[Dab][3Pal]-NHMe
modifications: lactam N-10, 3-6
SMILES: CNC(=O)[C@H](Cc1cccnc1)NC(=O)[C@H](CCN)NC(=O)[C@@H]1CCC(=O)NCc2ccc(cc2)CC(=O)N[C@@H](CO)C(=O)N[C@H]2CCC(=O)NCC[C@H](NC(=O)[C@H](CCCCNC(C)=O)NC(=O)[C@H](Cc3c[nH]c4ccccc34)NC2=O)C(=O)N[C@@H](Cc2ccc(OCCN)cc2)C(=O)N[C@@H](Cc2ccc3ccccc3c2)C(=O)N[C@@](C)(CC(C)C)C(=O)N1
B4: Compound 26 (peptide)
peptide: [4‑Aminomethyl‑phenylacetyl]SEW[Cit][Dab][AEF][2Nal][αMeL]E[Dab][3Pal]-NHMe
modifications: lactam (positions not given here); lactam 3-6; not fully specified (bridges)
B5: Compound 31 (peptide)
peptide: [4‑Aminomethyl‑phenylacetyl]SEWQ[Dab][AEF][2Nal][αMeL]ES[3Pal]-NHMe
modifications: lactam N-10, 3-6
B6: Compound 25 (peptide)
peptide: [4‑Aminomethyl‑phenylacetyl]SEW[Dab](Ac)[Dab][AEF][2Nal][αMeL]E[Dab][3Pal]-NHMe
modifications: lactam (positions not given here); lactam 3-6; not fully specified (bridges)
B7: Compound 33 (peptide)
peptide: [4‑Aminomethyl‑phenylacetyl]SEWQ[Dab][AEF][2Nal][αMeL]EQ[3Pal]-NHMe
modifications: lactam N-10, 3-6
SMILES: CNC(=O)[C@H](Cc1cccnc1)NC(=O)[C@H](CCC(N)=O)NC(=O)[C@@H]1CCC(=O)NCc2ccc(cc2)CC(=O)N[C@@H](CO)C(=O)N[C@H]2CCC(=O)NCC[C@H](NC(=O)[C@H](CCC(N)=O)NC(=O)[C@H](Cc3c[nH]c4ccccc34)NC2=O)C(=O)N[C@@H](Cc2ccc(OCCN)cc2)C(=O)N[C@@H](Cc2ccc3ccccc3c2)C(=O)N[C@@](C)(CC(C)C)C(=O)N1
B8: Compound 40 (peptide)
peptide: [4‑Aminomethyl‑phenylacetyl]AEWQ[Dab][AEF][2Nal][αMeL]ES[3Pal]-NHMe
modifications: lactam N-10, 3-6
SMILES: CNC(=O)[C@H](Cc1cccnc1)NC(=O)[C@H](CO)NC(=O)[C@@H]1CCC(=O)NCc2ccc(cc2)CC(=O)N[C@@H](C)C(=O)N[C@H]2CCC(=O)NCC[C@H](NC(=O)[C@H](CCC(N)=O)NC(=O)[C@H](Cc3c[nH]c4ccccc34)NC2=O)C(=O)N[C@@H](Cc2ccc(OCCN)cc2)C(=O)N[C@@H](Cc2ccc3ccccc3c2)C(=O)N[C@@](C)(CC(C)C)C(=O)N1

Each binder was assayed against T1, Nluc-IL23R fusion protein (human, UniProt Q5VWK5 22-629) (assay: BRET competition vs TAMRA-labelled peptide, Nluc-IL23R membranes).
T1 construct: range 22-629; expressed with a secretion signal in HEK293 cells; used as crude membrane preparation; also called hIL-23R; human IL-23R; not shown: Nanoluc protein from the expression plasmid N1371 (Promega), N-terminal of IL-23R
T1 sequence (looked up): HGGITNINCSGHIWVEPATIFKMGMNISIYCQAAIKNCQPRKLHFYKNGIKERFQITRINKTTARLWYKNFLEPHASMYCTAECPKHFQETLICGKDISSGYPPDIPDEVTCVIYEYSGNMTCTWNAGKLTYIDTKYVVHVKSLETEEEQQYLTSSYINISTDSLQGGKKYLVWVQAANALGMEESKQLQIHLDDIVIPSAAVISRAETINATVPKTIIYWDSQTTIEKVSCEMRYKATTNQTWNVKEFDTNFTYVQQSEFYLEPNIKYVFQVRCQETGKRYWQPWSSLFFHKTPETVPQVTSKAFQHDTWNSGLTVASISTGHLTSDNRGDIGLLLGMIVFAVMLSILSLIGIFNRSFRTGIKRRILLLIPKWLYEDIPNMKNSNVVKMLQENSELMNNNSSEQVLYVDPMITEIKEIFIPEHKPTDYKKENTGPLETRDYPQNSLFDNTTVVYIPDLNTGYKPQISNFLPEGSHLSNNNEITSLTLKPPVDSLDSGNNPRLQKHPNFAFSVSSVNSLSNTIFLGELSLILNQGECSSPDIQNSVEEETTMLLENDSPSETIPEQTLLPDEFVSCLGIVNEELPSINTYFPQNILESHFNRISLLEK
In the case of B1, the % displacement (hIL-23R binding) is reported as 104%.
With B2 the % displacement (hIL-23R binding) was 97% and the IC50 was 0.017 nM.
For B3, the % displacement (hIL-23R binding) was 97%.
Work on B4 yielded a % displacement (hIL-23R binding) of 95%.
Work on B5 yielded a % displacement (hIL-23R binding) of 97%.
B6 showed a % displacement (hIL-23R binding) of 93% and an IC50 of 0.011 nM.
B7 was tested, and the % displacement (hIL-23R binding) was 92%.
In the case of B8, the % displacement (hIL-23R binding) is reported as 100%.
